The values below come from publication PMC9867944 (Bioscience Reports, 2023).

Assay [1] has as its target T1, human PD-1 protein (Acro biosystems) (Homo sapiens (Human)., UniProt Q15116).
T1 construct: programmed death protein 1 (PD-1), human, recombinant protein; probably the extracellular domain; also called human PD-1 antigen; hPD-1; source: bought: Acro biosystems
Kind of assay: ELISA; Phage-ELISA; wells coated with human PD-1 protein; supernatant of the colonies added for 1 h; anti-M13/HRP (1:5000); positive if absorbance more than two times the negative control (PBS). The note with it: one partner purified. (An ELISA detects its analyte on a solid surface through an enzyme-linked reagent.)

Another assay concerns the target T2, anti-PD-1 Nb C12-Fc (Bactrian camel).
T2 construct: VHH C12 selected from a naive Bactrian camel phage display library; Nb C12 fused to the human IgG1 Fc fragment in plasmid pCZN1; about 40 kDa on SDS-PAGE; also called anti-PD-1 Nb-Fc; PD-1 C12 Nb-Fc
In words: ELISA; plates coated with human PD-1 or mouse PD-1 protein at 2 ug/ml overnight; serial diluted anti-PD-1 Nb-Fc added, 37 C, 1 h; HRP-conjugated antihuman IgG. The note with it: both partners purified.

T1 sequence (Q15116 25-170): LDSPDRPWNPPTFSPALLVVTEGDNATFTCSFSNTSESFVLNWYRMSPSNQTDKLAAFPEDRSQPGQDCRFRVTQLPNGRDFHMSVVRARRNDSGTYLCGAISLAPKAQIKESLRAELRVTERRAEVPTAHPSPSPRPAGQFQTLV

B1: anti-PD-1 Nb C11, displayed on phage (VHH)
VHH: QVQLQESGGAWCEPGGSLTLPCAVSGFAVDRDAVSWVRKAPGQGLQWVSTTTPDGTNYYGALAKDRFTVTRDTTRNTLQLQLTKLRIEDTAKYHCVQDYCSTGRCSLRTQGTQVTVSS
notes: VHH C11 selected from a naive Bactrian camel phage display library; Detected with anti-M13/HRP; C11 was never made as an Fc fusion (ligation to pCZN1 failed); also called C11 Nb; source: E. coli TG1, phage in the supernatant of the colonies
B1: in assay [1], the binding result is recorded as “binds”.

B2: anti-PD-1 Nb C12, displayed on phage (VHH)
VHH: QVQLQELGETRCRHGGSLRLSCKVSGYTQRSYCLGWLRQAPGNEREAVAVLQHSGNFRHYADSVQGRFVISQDYTDNTVYLAMNNLKSEDAAMYYCAAVGLRVSQFNYWGQGTQVTVSS
notes: VHH C12 selected from a naive Bactrian camel phage display library; same VHH as in m1; Detected with anti-M13/HRP; also called C12 Nb; source: E. coli TG1, phage in the supernatant of the colonies
B2: in assay [1], the binding result is given as “binds”.

B3: mouse PD-1 protein (receptor, UniProt Q02242 25-288, looked up)
chain: LEVPNGPWRSLTFYPAWLTVSEGANATFTCSLSNWSEDLMLNWNRLSPSNQTEKQAAFCNGLSQPVQDARFQIIQLPNRHDFHMNILDTRRNDSGIYLCGAISLHPKAKIEESPGAELVVTERILETSTRYPSPSPKPEGRFQGM
notes: programmed death protein 1 (PD-1), mouse, protein coated on plates; also called mouse PD-1 antigen
As for B3, in the assay with anti-PD-1 Nb C12-Fc, the binding result is “no binding”.
